Reference: patent US20030013150

Target: plasminogen
Sequence (P00747 20-810): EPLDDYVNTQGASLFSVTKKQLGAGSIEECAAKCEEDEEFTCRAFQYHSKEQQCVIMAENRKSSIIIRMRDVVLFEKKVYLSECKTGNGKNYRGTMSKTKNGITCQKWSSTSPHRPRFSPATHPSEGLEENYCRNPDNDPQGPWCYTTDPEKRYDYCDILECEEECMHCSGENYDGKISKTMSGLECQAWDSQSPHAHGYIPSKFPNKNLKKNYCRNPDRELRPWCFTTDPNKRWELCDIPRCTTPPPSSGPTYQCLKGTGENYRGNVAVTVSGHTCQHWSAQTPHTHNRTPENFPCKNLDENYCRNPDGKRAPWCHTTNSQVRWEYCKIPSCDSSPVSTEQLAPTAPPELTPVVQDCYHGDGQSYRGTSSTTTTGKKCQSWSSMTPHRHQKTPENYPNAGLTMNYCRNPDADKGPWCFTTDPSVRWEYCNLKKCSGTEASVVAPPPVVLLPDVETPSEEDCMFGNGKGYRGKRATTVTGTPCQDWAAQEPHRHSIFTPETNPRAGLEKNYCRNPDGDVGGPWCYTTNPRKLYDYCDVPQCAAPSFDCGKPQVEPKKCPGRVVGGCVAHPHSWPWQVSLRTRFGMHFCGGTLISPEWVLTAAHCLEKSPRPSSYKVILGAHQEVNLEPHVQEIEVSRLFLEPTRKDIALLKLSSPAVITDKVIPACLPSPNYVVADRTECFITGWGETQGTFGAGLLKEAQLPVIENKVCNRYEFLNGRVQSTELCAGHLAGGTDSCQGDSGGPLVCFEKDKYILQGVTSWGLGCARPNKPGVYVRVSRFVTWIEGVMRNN

| Protein | copolymerized plasminogen polyacrylamide gel electrophoresis (clearing zones) | fibrinogen-dependent enzymatic activity (amidolytic assay, plasminogen and S-2251) | fibrinogen-dependent enzymatic activity of the periplasmic r-K2S preparation (amidolytic assay, plasminogen and S-2251) |
| --- | --- | --- | --- |
| standard melanoma tPA 86/670 (protein) SYQVICRDEKTQMIYQQHQSWLRPVLRSNRVEYCWCNSGRAQCHSVPVKSCSEPRCFNGGTCQQALYFSDFVCQCPEGFAGKCCEIDTRATCYEDQGISYRGTWSTAESGAECTNWNSSALAQKPYSGRRPDAIRLGLGNHNYCRNPDRDSKPWCYVFKAGKYSSEFCSTPACSEGNSDCYFGNGSAYRGTHSLTESGASCLPWNSMILIGKVYTAQNPSAQALGLGKHNYCRNPDGDAKPWCHVLKNRRLTWEYCDVPSCSTCGLRQYSQPQFRIKGGLFADIASHPWQAAIFAKHRRSPGERFLCGGILISSCWILSAAHCFQERFPPHHLTVILGRTYRVVPGEEEQKFEVEKYIVHKEFDDDTYDNDIALLQLKSDSSRCAQESSVVRTVCLPPADLQLPDWTECELSGYGKHEALSPFYSERLKEAHVRLYPSSRCTSQHLLNRTVTDNMLCAGDTRSGGPQANLHDACQGDSGGPLVCLNDGRMTLVGIISWGLGCGQKDVPGVYTKVTNYLDWIRDNMRP | The positive control lane of standard melanoma tPA also demonstrated enzymatic activity at 66 and 72 kDa positions | – | – |
| recombinant-K2S (r-K2S) expressed in non-gpIII fusion form in E. coli XM[K2S] (protein) SEGNSDCYFGNGSAYRGTHSLTESGASCLPWNSMILIGKVYTAQNPSAQALGLGKHNYCRNPDGDAKPWCHVLKNRRLTWEYCDVPSCSTCGLRQYSQPQFRIKGGLFADIASHPWQAAIFAKHRRSPGERFLCGGILISSCWILSAAHCFQERFPPHHLTVILGRTYRVVPGEEEQKFEVEKYIVHKEFDDDTYDNDIALLQLKSDSSRCAQESSVVRTVCLPPADLQLPDWTECELSGYGKHEALSPFYSERLKEAHVRLYPSSRCTSQHLLNRTVTDNMLCAGDTRSGGPQANLHDACQGDSGGPLVCLNDGRMTLVGIISWGLGCGQKDVPGVYTKVTNYLDWIRDNMRP | Transparent areas of serine protease digested plasminogen were observed only in the ammonium sulfate precipitated culture supernatants of E. coli XM[K2S] at 34 and 37 kDa postions | The culture supernatant r-K2S gave the fibrinogen-dependent enzymatic activity of 7 IU/ml | notably low enzymatic activity, which was below the sensitivity of the test (0.25 IU/ml) |
